Assay results: paper PMC2925294
Like-named read-outs stand apart in the source and are kept apart here.

Columns and labels:
Test in all cases: cryo-EM structure
[1] = target: epsilon15 bacteriophage tail hub (epsilon15 bacteriophage)
[2] = target: epsilon15 bacteriophage tail-spike (gp20) (epsilon15 bacteriophage)
[3] = target: epsilon15 bacteriophage capsid stapling protein gp10 (epsilon15 bacteriophage)
[4] = target: epsilon15 bacteriophage capsid stapling protein gp10 (epsilon15 bacteriophage); remark: listed apart in the source

Substance: epsilon15 bacteriophage tail hub (natural protein)
- stoichiometry N [1]: 6

Substance: epsilon15 bacteriophage tail-spike (gp20) (natural protein)
- stoichiometry N [2]: 3

Substance: epsilon15 bacteriophage capsid stapling protein gp10 (natural protein)
- stoichiometry N [3]: 2
- stoichiometry N [4]: 2
